Results: the DeepSol protein solubility set

Assay: soluble on expression in E. coli; label from the status in PepcDB or PDB records

Row | Sequence | soluble on expression in E. coli
1 | MSLKKIGVLGMGYVGIPAAVLFADAPCFEKVLGFQRNSKSSGYKIEMLNRGESPLKGEEPGLEELIGKVVKAGKFECTPDFSRISELDAVTLAIQTPFANPKDLEPDFSALIDGIRNVGKYLKPGMLVVLESTITPGTTEGMAKQILEEESGLKAGEDFALAHAPERVMVGRLLKNIREHDRIVGGIDEASTKRAVELYSPVLTVGQVIPMSATAAEVTKTAENTFRDLQIAAINQLALYCEAMGINVYDVRTGVDSLKGEGITRAVLWPGAGVGGHCLTKDTYHLERGVKIGRGELDYPEGADSIYVLARKVNDFMPAHMYNLTVAALERLGKKMDGSKVAMLGWAFIKDSDDARNTPSEPYRDLCLKAGASVMVHDPYVVNYPGVEISDNLEEVVRNADAIVVLAGHSAYSSLKADWAKKVSAKANPVIIDGRNVIEPDEFIGKGFVYKGIGRGDKNSHKIKEGHHHHHH | soluble
2 | MTEQKNKTSLIEFPCTFPLKVMGAVHPEFEQAVLDTVRLHAPDTQAHHITTRPSSKGNYTGATVQVKVENQEQLDNIYRALTSHELVKVVL | not soluble
3 | MSVASETNWKKLDEKIAISGQISVDDVAAIAAAGYKSIICNRPDGEGGEHQPGSTELEEAAKAAGLQFAYLPVEIGQVSDEKCSAFHQLMATLPGPVLAFCNSGNRARALYSRDVGTTTTPAETISAACDWEHEAAAVTEAESEAAGAAAVSAASSRDEAAGKSIPVTPACNWDNAFDIVVVGGGSAGLGVTASLLRRRSSLRIAIIEPNDKHYYQPAWTLVGGGAYAVDQTVRNTADVIPHGAEWIKAEVSGFSPNDNLVHLADGRTIGYQQLIVCPGIRLAWEKIEGIQETLGKNGVTSNYLFDLAPYTWSLTQQLKGGKALFTQPPMPIKCAGAPQKAMYLSCDYWQRQGVLDKIEVEFDSAGAVLFGVADFVPPLMEYVRKYHANLVFNSNLVKVNGPEKIATFEIKNEAGEVTRVDKPFDMLHVTPPQAAPDFLRDSPLADASGYCEVNPKTLQHTRFANIFSLGDACSSPNTKTAAAVRKQIVIVAENLLAAKDGREFHAVYDGYGACPLTVENGKVVLAEFGFGGKLLPTFPLNPAVARKLYWWFKVKLFPWLYWEGMLKGREWLTRSTETKLEHHHHHH | soluble
4 | MGSDKIHHHHHHVIRRAKPLLGTLVEIAAESLPHSGSEIPLEDKALEAAMTAAFSRVTHIGRLLSFHQQDSELNQLNRQPGTWIRVSQDSLRVLKLAKWLGKASNNLFNCTVGGEMMSRGALPAYLGMPLLLQGEWQDIEIKDNQVRLARPLILTLDGIAKGYAVDMAVSELRRAGVGGGWVNAGGDLRVFGSASLNVLCRGPKGLSQKICVSNMALASSRVSQTLSHDYPALLLPTGNVTDVNIDLESERIVSVSAPFAWRADALTKVAGYLSSDSAADKIAHLGGRLVSFE | not soluble
5 | MGSDKIHHHHHHMKKTSFIYLLLLIALGLSSCQQEKTFKVLQFNIWQEGAVVKGGFDAIADEIVRSNADFVTLSEVRNYHQTRFCDRIVEALQQRGQTYYSFYTEDSGLLSRYPITDSTTVYPLNDDRGSMYKAITHIGDTEVALYTAHLDYRNCAYYDARGYDGNTWDEEPPVTNLDTLLWLNEQSVRDDAIACFLKEAKKDREAGRIVILGGDFNEPSHLDWTEATKDMRDHQGLVVPWHVSVMLEKDGFKDTYREIFPNPVTHPGLTCPADCKDIALEKLVWSPKADDRDRIDFIHYAPFEGLTLTDVCIIGPKGDILRGQRETEETSDPIMTPLGIWPTDHKAVLATFHLK | not soluble
6 | SPGFSVGVIGDMFLLPNLNLRLLPTLHFGDKQFVFSDGEKPVASFSVRSNYLEFPLLLKYGSRRLNNMRPYLIGGPYWTMELGRKKGLEIYTKANDYGVQIGLGCDFYLPFFKLCPELRFSFGFPDVITHERPDLLDDYKLIYTQSISRARTRMIMLTFNFE | not soluble
7 | MKAPLVSIIIPVWNLWELTCACLDSIRAHTPGNAVEVIVVDNGSDDTTATALAPTGEGLFGARFRRIRLETNRGFAVACNLGAAKAQGTYLLLLNNDTVLSPGWLPPLLREFDDEPRTGAAGPLLVYPDSGRVQHCGIAFAPTLQTEHLYANFPATHPAVRARRTLQAITGAAMLLPTALFRQCGGFHEGYKNGCEDLELCCRIREQGLRLAVVPESLVAHHESRTPGRKEHDAANATLLNRRCSGCFGPDLHRHALRDGFAIALTPWLDTYLTLPPGREAALTREHITDFDPGRCWETLQGEPLWHGGYEMLCSILDEAGRHAESAGVRLLQAGFFPTLPGFRQLARSAALSGNDELARQAAEKMQHIGGILEDPEPLVTRARGLVRWARRAGEPAVEALYTGWLTDIGLSADDLEHHHHHH | soluble
8 | MITSDSHMHTRFSTDSDADIRDMIESALKKGLQSICITDHIDKDYPFHEDTGAEAFLVDLDEYFPKLAEWKEAYAEKIQIRRGIELGLQPHLAGFYEELTNQYPFDFVIGSVHVVHGMDPYYGEIFEGRSDEEVYKETFLATLENLDAVSSFDVLGHLDYVVRYGKCQARQYSYKKYAQEIDEILKKVIAMGKGIELNTAGWKYGLAFCHPHPEILCRYKELGGEIITVGSDAHKPEHVAYDFQKAADVLKACGFKYYTEFQDRKPIFKQLL | soluble
9 | MGSDKIHHHHHHMQRVRQICVVGGSGFVGSALVHRLSTAGYDVKVLTRRRESSKHLILLPNVQVTECDVFNEASLSGQLHGQDAVINLAGILHESGNATFESIHVDLATRIADICCKQGVPRLLHMSALKASADAKSAYLRSKAAGEQAVLRRADELQVTVFRPSVIFGRGDHFLSMLANVVNMMPVVAVAKPNAKFQPIWVEDVAYVFLTALENVSTYGRSIDLGGPQVYTLKQLIELTALLLGKKRRIVSLNDKLSYYQAYALELMPFKLMTRDNLLSMEVDSVCDGPISEFFGHSLASLEAIAPEYIAGETPRSAYERFRSLAGRTFSRR | not soluble
10 | MSEEIISKKPSKPQASRKGKRAWRKNIDIQEIEQNLQDKRDEEIVLGKEVTDDFVIDDTPSSKSGKLPKKLKTKEILTNKSKIPALTNQRHQKKGENTIQGVKKTDLLRLIQLNGGKFKSEDKYVNRLEQDGIVNGSSQDLWDDTDNNEKKKIPDFMKSTAEVTKASVVPKTLKVNPIKITSNELTDKKIHAGKSYNPSLESWKELINQEYDIEYKRELTRQQIEEHRNKIKELMITLDDNMLSDSDDDEDDEDNDKVEEEEQLNANGEKDYSLSINKPNKIKIKTKTKRNKELKHKERVKLEQEIKDLKKQLKDLSNLDEILEKQAVKDQSQPNEKKRKRREKLFKYSLVETPLEVKLSDELSGNLKNLKPEGNLYYDQMLSLQSSGKIESRVPVNKKRKYTKKITEKWTYKDFK | not soluble
11 | MGSDKIHHHHHHLDPFASPQNLDKELRSLLAQASSNLCDWFAESASQGPMPYSFELPEVYPAKEGVSNDVLLSELQLLMDGSYRPSHPGSLAHLDPPPLSASIAGELICAGLNNNLLADELSPSLSSLERNLCKWFCHKLGLGDLSGGVAASGGSLSNLMALVMARNNSGLETDPKAVFFASHDCHVSFSKAFRIMGLKQESLQKVSTDENGALNISSLRTSLNKIKSQGKKCFAVVATAGTTVRGAIDPLSEIAKFCKKENVWFHVDGSIGGIYGLSEMTSEIVQGLGFADSLTINPQKLLGIPKTSSLLLVANKNHLSSTFSTGLPYVEPISGNDFHGGELGIQGTRSAETLKLWIGLRQLGEEGIEKILLGSIKRRCYLESIIDRSKFKIISGPLHLLAFTPINYSSSQSSDWSLKTRNSLLANKFMLSRPMYGHRYYLKAVMGNPNTKFDDLKMLANLINHSIS | not soluble
12 | MKAETTTGVEELLNELVGRAAGEVGLILFSLGIEGEFTDDQLSLELGIEINEIRKALFALYEIGLADYVRRRDDETGWMEYYWRINYDKALDVLKRELEKTAKKLREKIEAETSTIYYICPNMCVKVSYNDAMELNFTCPRCGAMLDYLDCSKAIEKIEEEVRRIEEILESLDKNSG | not soluble
13 | MPDEIYLFTPKGKIFALPKNSTALDFAYAVHTDIGNHAVTSRVDKQLMPLRTKLSSGQTVEIITARSALPKPQWLEHHHHHH | not soluble
14 | MRQYVCCNYNEKEIKMKKFHFTDTSLFWGFSEEEAESVLKCLSAVNKTYKKDEYIFRMGDTITSVGMVLTGSVQVIREDYWGNRQIIAVMGEGQLFGESYACAGGEPLMVSVMAEENTEVLFLEVGRLLTVCSMACRFHSRVIQNLLKVIAGRNLTLTTKIDHMSKKTIREKVLSYLSYQAEKQGKNRFEIPFNRQQLADYLAVDRSALSAELSKMQKEKLISYDRNHFILP | not soluble
